According to US20260347486 (published 2026):
Where a chain is given by its changes, count along the chain named.

T1: IL-18Rα ECD (human)
T1 chain: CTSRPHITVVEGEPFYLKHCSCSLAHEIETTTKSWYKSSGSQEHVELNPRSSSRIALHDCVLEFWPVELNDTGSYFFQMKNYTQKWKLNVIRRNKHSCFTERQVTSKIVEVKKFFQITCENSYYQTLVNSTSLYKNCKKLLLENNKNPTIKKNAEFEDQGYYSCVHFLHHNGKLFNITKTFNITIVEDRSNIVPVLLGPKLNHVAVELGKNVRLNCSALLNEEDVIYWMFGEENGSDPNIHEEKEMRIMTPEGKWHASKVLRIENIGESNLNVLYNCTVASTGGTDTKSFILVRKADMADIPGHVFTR

T2: IL-18Rβ ECD (human)
T2 chain: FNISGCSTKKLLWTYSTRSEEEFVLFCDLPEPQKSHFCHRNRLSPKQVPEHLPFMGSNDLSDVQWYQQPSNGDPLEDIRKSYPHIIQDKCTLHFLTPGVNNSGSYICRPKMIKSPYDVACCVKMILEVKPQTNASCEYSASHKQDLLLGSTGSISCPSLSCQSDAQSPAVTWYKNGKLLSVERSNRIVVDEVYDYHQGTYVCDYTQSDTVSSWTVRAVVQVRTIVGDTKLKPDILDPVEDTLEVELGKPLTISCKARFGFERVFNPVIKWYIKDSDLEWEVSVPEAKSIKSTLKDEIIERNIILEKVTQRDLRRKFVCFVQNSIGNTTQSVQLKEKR

B1: ms_IL18R_VHHβ18 (antibody, V domains shown)
VH: DVQLQESGGGLVQAGGSLRLSCAASGRTFSSYAMGWFRQAPGMVREFVAAISWSGGSTYYADSVQGRFTISRDNAKNTVYLQMNSLKPEDTAVYYCAADRSLSGSYFGATIDYWGQGTQVTVSS
B2: ms_IL18R_VHHβ17 (antibody, V domains shown)
VH: DVPLQESGGGLVQAGGSLRLSCVASGFALDEIAVGWFRQAPGKEREGLSCISSSDGSTLYADSVKGRFTISSDNAKNTVYLQMNSLKPEDTAVYLCAAVRGSCFGRTTHWGQGTQVTVSS
B3: ms_IL18R_VHHβ16 (antibody, V domains shown)
VH: DVQLQESGGGSVPAGGSLRLSCSASGFTTDDYIIGWFRQAPGKKREGVSCISTTDGSAWYADSVKGRFTISSDNANNTVTLQMNSLLPEDTSVYYCAEVSTGTGVLYCREEFYFGMDSWGKGTPVTVSS
B4: ms_IL18R_VHHβ20 (antibody, V domains shown)
VH: DVQLQESGGGLVQAGGSLRLSCAASVSAFRLKVMGWYRQAPGKEREFVAAIDSGDTKSYTNAVKGRFTISGGAATNTVVLQMNSLKPEDTAFYYCNAVLFGRDYWGQGTQVTVSS
B5: ms_IL18R_VHHβ15 (antibody, V domains shown)
VH: DVQLQESGGGLVQPGGSLRLSCAASGRFFTINAMGWYRQTPGKQRELVAAITSDGSTTYQDSVKGRFTISRDNANRTANLYMNSLKSEDTAVYYCNADGRFNDNGYVKNFNIWGQGTQVTVSS
B6: ms_IL18R_VHHβ12 (antibody, V domains shown)
VH: DVPLQESGGGLVQPGGSLRLSCRASGVGFSIYTMGWYRQAPGEQRHLVATVTTGGHINYGDSVQGRFTISRENNGNVVELQMHSLKPEDTAVYFCNAIYFGQDIWGQGTQVTVSS
B7: ms_IL18R_VHHβ14 (antibody, V domains shown)
VH: DVPLQESGGGLVQAGGSLRLSCAASDRTVSKGAMGWFRQAPGKEREFVATIGRSSGITYYADSVKGRFTISRDNAKNTWYLQMNSLRPEDTAVYYCAADSSGIIRTTSWAYDYWGQGTQVTVSS
B8: ms_IL18R_VHHβ22 (antibody, V domains shown)
VH: DVPLQESGGGLVQPGGSLRLSCAAPGFALEYYAIGWFRQAPGKEREGLSCVSSSRSGGSTVYADSVKGRFTISRDNAKNTVYLQIDSLKVEDTAVYYCAGAPAYRSHYCRLQADDYTYWGQGTQVTVSS
B9: ms_IL18R_VHHβ13 (antibody, V domains shown)
VH: DVQLQESGGGLVQPGGSLRLSCAASGISFRVNVLGWYRQAPGKPRELVASISSGDSTNYADSVKGRFTISRDNAKSTVYLQMNNLKPEDTAVYYCNARIFARDNWGQGTQVTVSS
B10: ms_IL18R_VHHβ21 (antibody, V domains shown)
VH: DVQLQESGGGLVQAGGSLRLSCAASGITFSPYVMGWYRQAPGKQRELVADMVNGGSTNYADSVKGRFTIFRDTAANTVTLQMNNLKPDDTAVYYCHIMIFGRASWGQGTQVTVSS
B11: ms_IL18R_VHHβ19 (antibody, V domains shown)
VH: DVQLQESGGGLVQAGGSLRLSCAASGIRFNPFRMAWYRQAPGKQRELVAAIDSGGSTDYADSVRGRFTISRDNAKITVSLQMNSLKPEDTAVYYCNTQIFARDYWGQGSQVTVSS
B12: IL18R_VHHα8β17 (antibody, V domains shown)
V domain 1: DVQLQESGGGLVQAGGSLRLSCAASGRTFSNDAMGWFRQAPGKEREFVAAVSWSLGMTYNADSVKGRFTISRDNAKNTVYLQMNSLKPDDTAVYYCAAGPDLSDELYGYDYWGQGTQVTVSS
V domain 2: B2 VH
B13: IL18R_VHHα2β17 (antibody, V domains shown)
V domain 1: DVQLQESGGGLVQAGGSLRLSCAASGFTLLDSYDIGWFRQAPGKKREEVSCISSSGGKSTYYADSVKGRFTISRDNANNTVYLQMNSLKPEDTAVYYCAADGAEGFWSCQSGGYDYWGQGTQVTVSS
V domain 2: B2 VH
B14: IL18R_VHHα8β15 (antibody, V domains shown)
V domain 1: B12 V domain 1
V domain 2: B5 VH
B15: IL18R_tanVHHα2β15 (antibody, V domains shown)
V domain 1: B13 V domain 1
V domain 2: B5 VH
B16: IL18R_VHHα2β15 (antibody, V domains shown)
V domain 1: B13 V domain 1
V domain 2: B5 VH
B17: IL18R_tanVHHβ15α2 (antibody, V domains shown)
V domain 1: B5 VH
V domain 2: B13 V domain 1
B18: ms_IL18R_VHHα8 (antibody, V domains shown)
VH: B12 V domain 1
B19: ms_IL18R_VHHα9 (antibody, V domains shown)
VH: DVQLQESGGGLVQPGESLRLSCTASRSDFSRYTMGWYRQAPGKWRELVARITSGGIPHYADSVKGRFTISRDNAKNTVTLQMNTLQFEDSAVYYCNTVGVALWAWGQGTLVTVSS
B20: ms_IL18R_VHHα10 (antibody, V domains shown)
VH: DVQLQESGGGLVQAGGSLRLSCAASGLPFSSYAMGWFRQAPGKDREFVAGITWSGSSIYYRDSVKGRFTISRDNAKNTVWLQMNDLKPEDTAVYYCAAARRRVGLPLADPREYVYWGQGTQVTVSS
B21: ms_IL18R_VHHα2 (antibody, V domains shown)
VH: B13 V domain 1
B22: ms_IL18R_VHHα6 (antibody, V domains shown)
VH: DVPLQESGGGSVQPGGSLRLSCAASKSIFSINAMRWHRQAPGKQRELVATFTSSGRINYADSVKGRFTISTDNAKNTIYLQMNSLNPEDTAVYRCNVGLWEDGLWYDYWGQGTQVTVSS
B23: ms_IL18R_VHHα4 (antibody, V domains shown)
VH: DVQLQESGGGLVQAGGSLRLSCAASGFTLGAYAINWFQQAPGKERARAWVLCITSSGGSAYYVDSVKGRFTVSRDNAKNTVYLQMNSLKPEDTAFYYCAAGGACAAAETMNYWGKGTLVTVSS
B24: ms_IL18R_VHHα3 (antibody, V domains shown)
VH: B23 VH with Q38R, V50D, L51A, G58R, V63A, N76H, G102A, E108G
B25: ms_IL18R_VHHα1 (antibody, V domains shown)
VH: DVPLQESGGGLVQTGGSLRLSCAASGFTFNSYAMGWYQQAPGKKYRELVAHIGSGGSTRYIDSVKGRFTISRDNAKNTVYLQMNSLKPEDTAVYYCNVYGATLRSWGQGTQVTVSS
B26: ms_IL18R_VHHα5 (antibody, V domains shown)
VH: DVQLQESGGGLVQAGGSLRLSCAASGRTFSNLAMAWFRQAPGKEREFVAAIDWNGDNRLYAASVKGRFTISRDNAKSTMYLQMNSLKPEDTAVYYCAADSTYSTDWYLNPLNRTRYDYWGQGTQVTVSS
B27: ms_IL18R_VHHα7 (antibody, V domains shown)
VH: B26 VH with R27H, S30N, F37C, A49S, A62Y, D105N, N109D, R115T, D117N, Q124P
B28: ms_IL18R_VHHα11 (antibody, V domains shown)
VH: DVPLQESGGGLVQPGQSLRLSCAASGSPIRFSVMGWFQQAPGKGRDLIARITSGGIVYYTDSVKGRFTISKDNAKNTLYLQMNSLNLEDTGVYYCNRLGGALFDWGQGTQVTVSS

Biological target: T1, IL-18Rα ECD
Test: BLI

binding result	Binder
no binding	B1
no binding	B2
no binding	B3
no binding	B4
no binding	B5
no binding	B6
no binding	B7
no binding	B8
no binding	B9
no binding	B10
no binding	B11

These binders were tested against IL-18BP (human) (assay: BLI).

binding result	Binder
no binding	B12
no binding	B13
no binding	B14
no binding	B15
no binding	B16
no binding	B17

Biological target: T2, IL-18Rβ ECD
Test: BLI

binding result	Binder
no binding	B18
no binding	B19
no binding	B20
no binding	B21
no binding	B22
no binding	B23
no binding	B24
no binding	B25
no binding	B26
no binding	B27
no binding	B28
no binding	B11
